The record followed here is article PMC3639176, “HnRNP A1/A2 and SF2/ASF Regulate Alternative Splicing of Interferon Regulatory Factor-3 and Affect Immunomodulatory Functions in Human Non-Small Cell Lung Cancer Cells”.

The target of one data set is GST-hnRNP A1 (UniProt P09651 1-372). Kind of data set: EMSA; 2 ug tRNA competitor; LightShift Chemiluminescent EMSA kit; 20 fmol biotinylated RNA, 50 ng protein (20 ng in Fig. 3 legend), 2 ug tRNA, 20 ul, 20 min, room temperature; 6% native PAGE; buffer, salt and pH not stated. The settings on record: protein: recombinant; label: 3' biotin.
In a further data set the target is GST-SF2/ASF (UniProt Q07955 1-248). The data set is described as above. To be noted: protein: recombinant; label: 3' biotin.
GST-SF2/ASF, sequence (Q07955 whole entry): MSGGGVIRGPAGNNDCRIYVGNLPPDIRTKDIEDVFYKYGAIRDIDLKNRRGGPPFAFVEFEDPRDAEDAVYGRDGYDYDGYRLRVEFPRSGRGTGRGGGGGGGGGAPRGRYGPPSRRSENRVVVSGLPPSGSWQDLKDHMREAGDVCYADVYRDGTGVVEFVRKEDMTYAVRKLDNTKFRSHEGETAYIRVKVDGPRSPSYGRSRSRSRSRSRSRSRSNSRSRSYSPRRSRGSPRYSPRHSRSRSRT

GST-hnRNP A1, sequence (P09651 whole entry): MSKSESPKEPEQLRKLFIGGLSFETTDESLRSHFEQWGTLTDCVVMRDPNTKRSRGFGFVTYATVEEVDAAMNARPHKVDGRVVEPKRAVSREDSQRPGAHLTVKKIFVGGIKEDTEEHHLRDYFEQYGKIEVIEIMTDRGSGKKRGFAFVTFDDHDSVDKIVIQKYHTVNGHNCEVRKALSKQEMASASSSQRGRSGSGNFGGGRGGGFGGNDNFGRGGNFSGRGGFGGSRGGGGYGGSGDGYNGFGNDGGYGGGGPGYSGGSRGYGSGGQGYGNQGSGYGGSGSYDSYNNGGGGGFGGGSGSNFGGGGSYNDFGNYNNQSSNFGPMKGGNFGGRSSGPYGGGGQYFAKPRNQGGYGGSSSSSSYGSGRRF

As to UGAAAUAACUAGGGAAAGAGGAUG (ssRNA) [wt-A1], the binding result with GST-hnRNP A1 is on record as “binds”. Turning to ACGCUGGGGAAGGAUGUGCCAUGGAUAUGGGAAGGAACCCUAG (ssRNA) [wt-SF2], the binding result in the data set with GST-SF2/ASF was “binds”.
